Laboratory results: publication PMC9293640, “Insights into the structural dynamics and helicase-catalyzed unfolding of plant RNA G-quadruplexes”

What was measured:
[1] = molecular target: T1, DExH1 (Arabidopsis thaliana, UniProt F4ILR7 1-995); test: MST; preferred substrate (3' tail rG4); EC50 only in figure; MST: 20 nM FAM-RNA, buffer not in material; pull-down: 20 mM Tris-HCl pH 7.5, 300 mM KCl, 0.1% Tween-20, 2 mM EDTA, RNase inhibitor, 4 °C 4 h; conditions: protein: recombinant; tags: 6xHis-SUMO removed; label: 3'-FAM; G4, 3' ss tail 15 nt
T1 sequence: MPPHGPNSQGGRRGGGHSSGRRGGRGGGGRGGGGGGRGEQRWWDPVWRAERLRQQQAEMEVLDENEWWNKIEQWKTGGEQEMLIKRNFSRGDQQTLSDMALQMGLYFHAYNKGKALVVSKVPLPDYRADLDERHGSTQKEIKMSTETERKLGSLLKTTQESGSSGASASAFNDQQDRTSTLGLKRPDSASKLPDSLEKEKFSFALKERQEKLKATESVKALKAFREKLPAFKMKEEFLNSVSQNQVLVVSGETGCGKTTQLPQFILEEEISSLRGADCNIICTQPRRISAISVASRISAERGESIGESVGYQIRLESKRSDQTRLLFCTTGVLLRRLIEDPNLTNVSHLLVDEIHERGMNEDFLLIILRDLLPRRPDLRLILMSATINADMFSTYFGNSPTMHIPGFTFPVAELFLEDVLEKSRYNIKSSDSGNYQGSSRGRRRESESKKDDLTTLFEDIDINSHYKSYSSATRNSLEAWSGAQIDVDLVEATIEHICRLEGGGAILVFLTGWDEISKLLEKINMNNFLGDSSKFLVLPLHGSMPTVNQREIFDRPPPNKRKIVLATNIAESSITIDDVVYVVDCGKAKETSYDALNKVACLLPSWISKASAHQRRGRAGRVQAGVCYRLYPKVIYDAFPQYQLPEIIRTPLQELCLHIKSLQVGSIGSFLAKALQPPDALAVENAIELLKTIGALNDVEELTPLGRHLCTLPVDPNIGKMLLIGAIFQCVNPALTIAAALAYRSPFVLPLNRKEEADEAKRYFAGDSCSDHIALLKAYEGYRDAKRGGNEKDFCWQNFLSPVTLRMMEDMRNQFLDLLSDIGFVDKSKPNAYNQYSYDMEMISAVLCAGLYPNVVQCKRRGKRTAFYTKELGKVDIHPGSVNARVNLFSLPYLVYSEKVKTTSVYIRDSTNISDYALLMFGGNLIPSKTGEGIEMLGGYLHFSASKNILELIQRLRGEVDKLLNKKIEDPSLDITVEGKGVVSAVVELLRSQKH

[2] = molecular target: T2, DExH15 (Arabidopsis thaliana, UniProt B9DFG3 1-1171); test: as above; conditions: protein: recombinant; tags: 6xHis-SUMO removed; label: 3'-FAM; G4, 3' ss tail 15 nt
T2 sequence: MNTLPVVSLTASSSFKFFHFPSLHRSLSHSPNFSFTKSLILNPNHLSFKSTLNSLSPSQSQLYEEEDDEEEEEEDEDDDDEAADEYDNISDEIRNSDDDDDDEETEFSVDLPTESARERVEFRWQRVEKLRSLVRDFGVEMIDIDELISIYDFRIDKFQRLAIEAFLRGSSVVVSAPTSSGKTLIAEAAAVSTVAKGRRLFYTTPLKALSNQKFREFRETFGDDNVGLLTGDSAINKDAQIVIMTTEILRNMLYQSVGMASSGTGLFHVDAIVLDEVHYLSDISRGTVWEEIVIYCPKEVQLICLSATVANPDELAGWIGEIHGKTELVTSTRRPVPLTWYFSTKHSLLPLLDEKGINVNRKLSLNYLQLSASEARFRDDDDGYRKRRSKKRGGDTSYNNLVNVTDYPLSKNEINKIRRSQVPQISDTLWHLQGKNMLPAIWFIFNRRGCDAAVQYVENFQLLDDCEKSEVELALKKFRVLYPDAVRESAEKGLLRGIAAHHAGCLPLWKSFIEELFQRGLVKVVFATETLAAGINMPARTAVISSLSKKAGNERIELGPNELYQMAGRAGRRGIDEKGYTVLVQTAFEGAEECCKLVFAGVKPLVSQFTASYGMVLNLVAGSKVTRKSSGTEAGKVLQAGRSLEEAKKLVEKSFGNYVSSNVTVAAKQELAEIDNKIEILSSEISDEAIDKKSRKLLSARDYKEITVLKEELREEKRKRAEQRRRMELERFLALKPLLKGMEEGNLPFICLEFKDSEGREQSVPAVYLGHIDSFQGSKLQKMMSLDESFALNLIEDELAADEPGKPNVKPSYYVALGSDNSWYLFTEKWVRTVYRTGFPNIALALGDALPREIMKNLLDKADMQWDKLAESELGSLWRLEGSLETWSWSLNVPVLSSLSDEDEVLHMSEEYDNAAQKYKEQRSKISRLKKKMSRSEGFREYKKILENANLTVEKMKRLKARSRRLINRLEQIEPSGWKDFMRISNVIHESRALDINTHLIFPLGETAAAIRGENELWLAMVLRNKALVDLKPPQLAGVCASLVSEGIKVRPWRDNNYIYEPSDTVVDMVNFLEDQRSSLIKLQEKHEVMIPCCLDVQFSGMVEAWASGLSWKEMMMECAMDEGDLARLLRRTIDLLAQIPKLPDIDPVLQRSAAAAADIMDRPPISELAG

B1: G4S (3' tail rG4) (structured_RNA)
RNA: GGGAGGGAAGGGGAAGGGGUUUUUUUUUUUUUUU
[1]
  binding result: binds
[2]
  binding result: binds
